Data as given in the nanobody polyreactivity screen of Harvey et al. (2022).

Test: yeast display, Sf9 membrane polyspecificity reagent, FACS + sequencing; frameworks hold sequencing errors
How it was run: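 Using colony PCR, genes from sorted yeast display clones were amplified, then sequenced on MiSeq at 2 × 250 and filtered by CDR length. The clones had been stained with 10% biotinylated, detergent-solubilized Sf9 membrane reagent for 1 hour at 4 °C and sorted by FACS into low and high (top ~1%) gates on anti-HA and streptavidin fluorescence. Polyreactivity labels come from the gate of origin.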

Row | Sequence | polyreactivity (PSR sort gate)
1 | QVQLVESGGGLVHAGGSLRLSCSATRSIFLGNAMGWYRQAPGKERELVAAISRSGGSTYYADSVKGRFTISRDNAKNTVYLQMNSLKPEDTAVYYCAAVVSSRVKQFEYWGQGNQVTVSS | high polyreactivity
2 | QVQLVESGGGLVHAGGSLRVSCAASGIIFDGNAMGWYRQAPGKERELVAAITASGGSTHYADSVKGRFTISRDNAKNTVYLQMNSLKPEDTAVYYCNKRSRTTGDYDYWGQGTQVTVSS | low polyreactivity
3 | QVQLVESGGGLVHAGGSLSLSCAASGIIFPWYTMGWYRKAPGKERELVAAISSGGRTNYADSVKGRFTISRDNATNTVFLQMNSLKQEDTAVYYCGAKYYRDRDWGQGTQVTVSS | high polyreactivity
4 | QVQLVESGGGLVHAGGSLSLSCAASGSIFPTNVMGWYRQAPGKERELVAAISANDGSTYYADSVKGRFTISRDNAKNTVYLQMNSLKPEDTAVYYCNQEGYTYRFTWYDYWGQGTQVTVSS | low polyreactivity
5 | QVQLVESGGGLVHAGGTLRLSCAASGSIFARYAMGWYRQAPVKERELVAAISRNGGSTYYADSVKGRFTISRDNAKNTVYLQMNSLNPEDTAVYYCAASYYVLYTREYDYWGQGSQVTVSS | low polyreactivity
6 | QVQLVESGGGLVHAVGSLRLSCAASGRTFISYAMGWYRQAPGKERELVAAISKYGGRTYYADSVKGRFTISRDNAKNTVYLQKISLKPEDTAVYYCAAVKTYLDYSSTSYDYWGQGTQVTVSS | high polyreactivity
7 | QVQLVESGGGLVHDGRSLRLSCSASRRTYRLYAMGLYRQAPGQERELVAAITRGGRTNYADSVMGRFTISRDNAKNTVYLQMNSLKPEDTAVYYCADRYVERHTDYYYWGQGSQVTVSS | low polyreactivity
8 | QVQLVESGGGLVHSGGSLRLSCAASGSIFRRNAMGWYIQAPGKERELVAAISASGGRTYADSVKGRFTISRDNAKNTVYLQMNSLKPEDTAVYYCAVRSYWRVDYWGQGTQVTVSS | high polyreactivity
9 | QVQLVESGGGLVKAGCSLRLRCAASGGTFSYYAMGLYRQAPGKERELVAAISRSSSRTYYADSVKGRFTISRDNAKNTVFLQMNSLKPEDTAVYYCAADRVSYSGRTPKGQRYDYWGQGTQVTVSS | high polyreactivity
10 | QVQLVESGGGLVKAGGRLRLSCAASGSIFKKYAMGWYRQAPGKERELVAAITSGRSTYYADSVKGRFTISRDNAKKTVYLQMNSLKPEDTAVYYCANYRKGSLGSWGQGTQGTVSS | high polyreactivity
11 | QVQLVESGGGLVKAGGSIRLSCAASGSIFYRNTMGWYRQAPRKERQLVAAISKTGGSTYYSDSVKGRFTISRDNAKNTVYVQMNSLKPEDTAVYYCNRAPYALRVLCTGIISGHDYWGQGTQVTVSS | high polyreactivity
12 | QVQLVESGGGLVKAGGSLRISCAASGRTFGLYAMGWYRQAPGKERELVAAISWGGGRTYYADSVKGRFTISRDNAKNTVYLQMNSLNPEETAVYYCNAVYSPRYYVGGYDYWGQGTLVTVSS | high polyreactivity
13 | QVQLVESGGGLVKAGGSLRLSCAASGFIFSLYAMGWYRQAPGKERELVASINRRGTSTFYADSVKGRFTISRDNAKNTVYLQMNSLKPEDTAVYYCNAYPGAAIRSTGRYDYWGQGTQVTVSS | low polyreactivity
14 | QVQLVESGGGLVKAGGSLRLSCAASGFIFYIYAMGWYRQAPGKERELVAAITSGGSTYYADSVKGRFTISRDNAKNTVYLQMNSLKPEDTAVYYCAAESYYGYDYWGQGTQVTVSS | low polyreactivity
15 | QVQLVESGGGLVKAGGSLRLSCAASGFTFNKYAMGWYRQAPGKERESVAAISSSGGSTRYADSVKGRFTISRDNAKNTVYLQMNSLKPADTAVYYCAVYVTPDSGWWLYDYWGQGTHVTVSS | high polyreactivity
16 | QVQLVESGGGLVKAGGSLRLSCAASGFTFYTYTMGWYRQAPGKERELVAVISRSGGSTYYADSVKGRFTISRDNAKNTVYLQMNSLKPEDTAVYYCNAGYWRFIDSYDYWGQGTQVTVSS | high polyreactivity
17 | QVQLVESGGGLVKAGGSLRLSCAASGGIFYRNSMGWYRQAPGKERELVAAISWRGGSTYYADSVKGRFTISRDNAKNTVYLQMNSLKPEDTAVYYCAARSVATYRYDYWGQGTQVTVSS | high polyreactivity
18 | QVQLVESGGGLVKAGGSLRLSCAASGIPFTFNAMGWYRQAPGKERELVAAITWSGGSTFYADSVKARFTISRDNAKITVYLQMNSLKQEDTAVYYCARETELYVRWLDYWGQGTQGTVSS | low polyreactivity
19 | QVQLVESGGGLVKAGGSLRLSCAASGITFYEYAMGWYRQAPGKERELVAAITTGGTTNYADSVKGRFTISRDNAKNTVYLQMNSLKPEDTAVYYCAKDLDSGGRGYYWGQGTQVTVSS | low polyreactivity
20 | QVQLVESGGGLVKAGGSLRLSCAASGLIFAYYDMGWYRQAPGKERELVASITGSGGDTYYADSVKGRFTISRDNAKNTVYLQMNSLKPEDTAVYYCNAYYGAAFTYWDDYWGQGTQVTVSS | low polyreactivity
21 | QVQLVESGGGLVKAGGSLRLSCAASGLTFRNNAMGWYRQAPGIERELVASINSGRSTNYADSVKGRFTISRDNAKNTVYLQMNSLKREDTAVYVCATRYYWYTRDSYDYWGQGTQVTVSS | low polyreactivity
22 | QVQLVESGGGLVKAGGSLRLSCAASGLTFTRYTMGWYRQAPGKERELVAAITSSGGSTYYADSVKGRFTISRDNAKNTVYLQRNSVKPEDTAVYYCAAPYPGTRGDGYWGLGTQVTVSS | high polyreactivity

Row | Sequence | polyreactivity (PSR sort gate)
23 | QVQLVESGGGLVKAGGSLRLSCAASGRIFKIYAMGWYRQAPGKERELVAAISGRGGSTYYADSVKGRFTISRDNAKNTVYLQLNSLKPEDTAVYYCAAVGYGFSAYSTYDYWGQGTQVTVSS | high polyreactivity
24 | QVQLVESGGGLVKAGGSLRLSCAASGRIFYLNAMGWYRQAPGKERELVAGIRKRGGSTYYADSVKGRFTISRDNAKNTVYLQMNSLKPEDTAVYYSAGQPALTYRFYYWGQGTQVTVSS | high polyreactivity
25 | QVQLVESGGGLVKAGGSLRLSCAASGRNFWFNAMGWYRQAPGKERELVAAIRNRGGSTYYADSVKGRFTISRDNAKNTVYLQMNSLKPEDTAVYYCARAPEGTGGKYGYWGQGTQVTVSS | high polyreactivity
26 | QVQLVESGGGLVKAGGSLRLSCAASGRTFGYYAMGWYRQSPGKERELVADIRQSGGRTYYADSVKGRFRISRDNAKNTVYLQMNSLKPVDTAVYYCAARRSYLAYTYRRSYPMDSWGQGTQVTVSS | high polyreactivity
27 | QVQLVESGGGLVKAGGSLRLSCAASGRTFVYYAMGWYRQAPGKERELVAAISGSGGSTYYADSVKGRFTISRDNAKNTVYLQMNSLKPEDTAVYYCAAGPRGRYRYGYWGQGTQVTVSS | high polyreactivity
28 | QVQLVESGGGLVKAGGSLRLSCAASGSIFDFYVMGWYRQAPGKERELVAAISSGGSTYYADSVKGRFTISRDNAKNTVYIKMNSLKPEDTAVYYCAAYPEYVSGAWYDYWGQGTQVTVSS | low polyreactivity
29 | QVQLVESGGGLVKAGGSLRLSCAASGSIFLYYSMGWYRQAPGKERELVAAITGGGCTNYADSEKGRFTISRDHAKNNVYLLMNSLKPEDTSVYYWAADASGQFPYSYYNYDYDYWGQGTQVSVSS | low polyreactivity
30 | QVQLVESGGGLVKAGGSLRLSCAASGSILGAYNMGWYRQAPGKERELVSAITRRGGSTYYADSVKGRFTISRDNAKNTVYLQMNSLNPEDTAVYYCNAEYGFWYDYLVVPYDYWGQGTQVTVSS | low polyreactivity
31 | QVQLVESGGGLVKAGGSLRLSCAASGSTFDSYAMGWYRQPPGKERELVASITSNDGSTSYADSVKGRFTISRDNAKNTVYLQMNSLKPEDTAVYYCAASSLYSDYGHRNLADGPYDYWGQGTQVTVSS | low polyreactivity
32 | QVQLVESGGGLVKAGGSLRLSCAASGSTFYSYVMGWYRQAPGKERELFAAISRRGGSTYYADSVKWRFTISSDNAKNTVYLQMNSLKPEDTAVYYCAASAPVAGYKYRYDYWGQGTQVTVSS | high polyreactivity
33 | QVQLVESGGGLVKAGGSLRLSCAATGFTLSWYDMGWYRPAPGKERELVATISRGGITYYADSVKGRFTISRDNAKNTVYLQMNSLKPEDTAVYYCAADYRYGWYRYDYWGQGTQVTVSS | high polyreactivity
34 | QVQLVESGGGLVKAGGSLRLSCAATGRIFTYMGWYRQARGKERELVAGISWRGTSTYYADSVKGRFTISRDNAKNSVYLQMNSLKPEDTAVYYCAARWAYHVRGDYWGQGTQVTVSS | low polyreactivity
35 | QVQLVESGGGLVKAGGSLRLSCAAYGIIYYPYAMGRYRHAPGKEWELVAAIDRSGSSTYYADSVKGRFTISRDNAKNTVYVQMNSLKPEDTAVYYCAAAHTYFTAYGDYWGQGTQVTVSS | low polyreactivity
36 | QVQLVESGGGLVKAGGSLRLSCAAYGITFIRYAMGWYRQAPGKERELVAVMTRSGGRTYYADSVKGRFTISRDNAKNTVYLQMNSLKPEDTAVYYCAARAYGYDEYEYWGQGTQVTVSS | high polyreactivity
37 | QVQLVESGGGLVKAGGSLRLSRAASGSIFPRYAMGWNRQAPGKERELVAAITSSAASTYYADSVKGRFTISRDNAKNTVYLQMNSLKPEDSAVYYCAASGPWSYWYYYWGQGTQVTVSS | low polyreactivity
38 | QVQLVESGGGLVKAGGSLRLSSAATGFIFAYYDMGWYRQAPGKERELVAAISSRGGTYYADSVKGRFTISRDNATITVYLKMNCLKPEDTAVYDCAAASYTWVSRGYEYWGQGTQVTVSS | high polyreactivity
39 | QVQLVESGGGLVKEGGSLRLRCAASGRTFYVNAMGWSRQAPGKERELFASISSSGGSTYYADSVKGRFTSSRDNAKNTVYLQMNRLKPEDTEVYYCAKGYWPFWRGDRFYWGQGTQVTVSS | high polyreactivity
40 | QVQLVESGGGLVKEGGSLRLSCAASGITFSWNAMGWYRQAPGKERELVAAISSSGGSTYYADSVKGRFTISRDYAKNTVYLLMNSLKPEDTAVYFCNADRFWFHWVYSRYHYDYWGQGTQVTVSS | high polyreactivity
41 | QVQLVESGGGLVKEGGSLRLSCAASGSIFDWYVMGWYRQAPRKERELVATITRDGSTNYADSVKGRFTISRDNAKNTVYLQMNSLKPEDTAVYYCAAVIRSNRLYDGGYWGQGTQVTVSS | low polyreactivity
42 | QVQLVESGGGLVLAGGILRLSCAASGSTFKRYAMGWYRQAPGKVRELVAAITWRGGSTYYADSVKGRFTISRDNAKNTVYLQMNSLKPEDTAVYYCAARANYFGWPKSYYYWGQGTQVTVSS | high polyreactivity
43 | QVQLVESGGGLVLAGGSLRLRCAASGRIFGQYTMGWYRQAPGKERELVAAISRSSSSKYADSVKRRFTISRDNAKNTGYLQMNSLKPEDTAVYYCAAYVYYYGGRTYDYWGQGTQLTVSS | high polyreactivity
